Measured values: paper PMC3930447

Target: GST-Dip1 (S. pombe) (S. pombe) (UniProt O74771)
Experiment: pull-down

UniProt O74771, sequence (O74771 whole entry): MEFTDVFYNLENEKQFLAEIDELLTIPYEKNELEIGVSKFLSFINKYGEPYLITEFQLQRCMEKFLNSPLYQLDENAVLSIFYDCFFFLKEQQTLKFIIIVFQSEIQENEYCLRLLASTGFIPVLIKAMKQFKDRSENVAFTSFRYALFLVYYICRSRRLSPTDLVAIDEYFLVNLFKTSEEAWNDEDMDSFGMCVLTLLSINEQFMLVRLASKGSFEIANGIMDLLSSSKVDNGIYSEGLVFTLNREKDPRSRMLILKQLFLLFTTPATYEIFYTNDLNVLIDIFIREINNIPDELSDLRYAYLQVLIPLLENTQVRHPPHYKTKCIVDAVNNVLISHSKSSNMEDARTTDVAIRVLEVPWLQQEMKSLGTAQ

percent pulled down: 20%
Substance: S. pombe Arp2/3 complex (from UniProt Q9UUJ1 1-390)
